Columns and labels:
Experiment in all cases: Co-IP with immunoblot quantification
[1] = target: KXD1 (UniProt Q80XH1); settings: uninfected cells cultured overnight; IP: BLOS1; parent: est. 100; read off a plot
[2] = target: BLOS2 (UniProt Q9CWG9); settings: uninfected cells cultured overnight; IP: BLOS1; parent: est. 100; read off a plot
[3] = target: PALLIDIN (UniProt Q9R0C0); settings: uninfected cells cultured overnight; IP: BLOS1; parent: est. 100; read off a plot
[4] = target: SNAPIN (UniProt Q9Z266); settings: read off a plot
Sequence of UniProt Q9Z266 (Q9Z266 whole entry): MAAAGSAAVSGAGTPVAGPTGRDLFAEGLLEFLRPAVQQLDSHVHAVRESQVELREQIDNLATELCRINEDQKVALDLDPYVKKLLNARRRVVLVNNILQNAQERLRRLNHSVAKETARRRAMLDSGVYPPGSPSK

Sequence of UniProt Q9R0C0 (Q9R0C0 whole entry): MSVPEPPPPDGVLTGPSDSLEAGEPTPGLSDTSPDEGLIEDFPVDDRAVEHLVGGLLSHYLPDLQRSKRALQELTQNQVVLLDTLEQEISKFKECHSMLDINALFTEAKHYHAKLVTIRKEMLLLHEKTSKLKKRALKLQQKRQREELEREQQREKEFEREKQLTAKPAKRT
Sequence of UniProt Q9CWG9 (Q9CWG9 whole entry): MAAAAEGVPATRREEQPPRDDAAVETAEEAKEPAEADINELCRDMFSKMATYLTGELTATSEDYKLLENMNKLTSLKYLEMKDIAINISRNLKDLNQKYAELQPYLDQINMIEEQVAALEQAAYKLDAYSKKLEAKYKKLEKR
Sequence of UniProt Q80XH1 (Q80XH1 whole entry): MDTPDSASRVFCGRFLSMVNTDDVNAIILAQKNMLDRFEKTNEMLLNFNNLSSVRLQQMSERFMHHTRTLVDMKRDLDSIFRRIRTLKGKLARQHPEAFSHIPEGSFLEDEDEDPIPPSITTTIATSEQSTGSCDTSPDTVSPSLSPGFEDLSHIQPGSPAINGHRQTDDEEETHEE

In the case of “BLOS1 [biogenesis of lysosome-related organelles complex-1 (BLOC-1) subunit 1] (from UniProt O55102) mBloc1s1 (first XAT hexapeptide-repeat motif EALDVH changed to EVVDH or EVDH)”, the percent of parent [1] was 10%, the percent of parent [2] was 5% and the percent of parent [3] was 22%. It also gave a response ([4]; parent: est. 0.67) of 0.07, a response ([4]; parent: est. 1.0) of 0.18 and a percent of parent ([4]; uninfected cells cultured overnight, IP: BLOS1, parent: est. 100) of 10%.
